Legend:
[1] = target: T1, Human neutrophil-derived myeloperoxidase (nMPO) (human), P05164; test: mass photometry; single-molecule mass photometry of intact nMPO on coverslips with silicone gaskets; apparent; diprotomer (ααββ) to monoprotomers (αβ)
[2] = target: T1, Human neutrophil-derived …; test: native MS; whole unfractionated intact nMPO infused by nano-ESI (gold-coated capillaries) into a modified Q-Exactive, positive ion polarity

Kd [1]: 50 pM
percent diprotomer [1]: 93%
percent monoprotomer [1]: 7%
stoichiometry N [1]: 2
stoichiometry N [2]: 2
B1: Human neutrophil-derived myeloperoxidase (nMPO), P05164 279-745; P05164 279-745 (enzyme)
chain 1: not shown
chain 2: VNCETSCVQQPPCFPLKIPPNDPRIKNQADCIPFFRSCPACPGSNITIRNQINALTSFVDASMVYGSEEPLARNLRNMSNQLGLLAVNQRFQDNGRALLPFDNLHDDPCLLTNRSARIPCFLAGDTRSSEMPELTSMHTLLLREHNRLATELKSLNPRWDGERLYQEARKIVGAMVQIITYRDYLPLVLGPTAMRKYLPTYRSYNDSVDPRIANVFTNAFRYGHTLIQPFMFRLDNRYQPMEPNPRVPLSRVFFASWRVVLEGGIDPILRGLMATPAKLNRQNQIAVDEIRERLFEQVMRIGLDLPALNMQRSRDHGLPGYNAWRRFCGLPQPETVGQLGTVLRNLKLARKLMEQYGTPNNIDIWMGGVSEPLKRKGRVGPLLACIIGTQFRKLRDGDRFWWENEGVFSMQQRQALAQISLPRIICDNTGITTVSKNNIFMSNSYPRDFVNCSTLPALNLASWREAS
modifications: heme covalently links the α- and β-chains; Met251 and Met253 oxidation and Trp255 oxidation variants; polypeptide truncation variants | N-glycans at Asn323 and Asn483 (mainly paucimannosidic M2F-M3F), Asn355 and Asn391 (mainly oligomannosidic M5-M6), Asn729 (largely unoccupied or GlcNAc1-GlcNAc1F); Met and Trp mono-/di-oxidation, Tyr mono-chlorination; Cys319-Cys319 bridge between the two …

Source: PMC7857493
